Literature values, collected in paper PMC3097287.
Read-outs that look alike come from different tables or passages of the source.

How the values were obtained:
[1] = target: NPRA ECD (Rattus norvegicus) (UniProt P18910); test: sedimentation equilibrium
[2] = target: NPRA ECD (Rattus norvegicus) (UniProt P18910); test: sedimentation equilibrium; remark: listed apart in the source
[3] = target: ANP (Rattus norvegicus) (UniProt P01161)
UniProt P01161, sequence (P01161 123-150): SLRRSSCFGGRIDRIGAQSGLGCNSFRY

- Kd [1]: 10 nM
- Kd [2]: 500 nM
- Kd [3]: 1 nM
Substance: NPRA ECD (from UniProt P18910)
